± gives the uncertainty stated by the source.
B1: Nucleolar transcription factor 1, residues 408 to 469; numbered along this chain, P17480 (parent)
chain: KRPVSAMFIFSEEKRRQLQEERPELSESELTRLLARMWNDLSEKKKAKYKAREAALKAQSER

Variants of: B1
Assay: abundance fitness (aPCA) (normalised: wild type 0, dead -1); higher = more abundant; growth selection in yeast, the domain comes from the species named
Settings: Homo sapiens

Variant	abundance fitness
KRPVSAMFIFSEEKRRQLQEERPELSESEWTRLLARMWNDLSEKKKAKYKAREAALKAQSER [L30W]	-0.177 ± 0.042
KRPVSAMFIFSEEKRRQLQEERPELSESEYTRLLARMWNDLSEKKKAKYKAREAALKAQSER [L30Y]	-0.099 ± 0.095
KRPVSAMFIFSEEKRRQLQEERPELSESETTRLLARMWNDLSEKKKAKYKAREAALKAQSER [L30T]	-0.118 ± 0.097
KRPVSAMFIFSEEKRRQLQEERPELSESESTRLLARMWNDLSEKKKAKYKAREAALKAQSER [L30S]	-0.178 ± 0.069
KRPVSAMFIFSEEKRRQLQEERPELSESELTRILARMWNDLSEKKKAKYKAREAALKAQSER [L33I]	0.016 ± 0.088
KRPVSAMFIFSEEKRRQLQEERPELSESELTRCLARMWNDLSEKKKAKYKAREAALKAQSER [L33C]	-0.1 ± 0.1
KRPVSAMFIFSEEKRRQLQEERPELSESELTRELARMWNDLSEKKKAKYKAREAALKAQSER [L33E]	0.006 ± 0.089
KRPVSAMFIFSEEKRRQLQEERPELSESELTRHLARMWNDLSEKKKAKYKAREAALKAQSER [L33H]	-0.02 ± 0.13
KRPVSAMFIFSEEKRRQLQEERPELSESELTRALARMWNDLSEKKKAKYKAREAALKAQSER [L33A]	-0.118 ± 0.052
KRPVSAMFIFSEEKRRQLQEERPELSESELTRDLARMWNDLSEKKKAKYKAREAALKAQSER [L33D]	-0.149 ± 0.069
KRPVSAMFIFSEEKRRQLQEERPELSESELRRLLARMWNDLSEKKKAKYKAREAALKAQSER [T31R]	-0.07 ± 0.042
KRPVSAMFIFSEEKRRQLQEERPELSESELCRLLARMWNDLSEKKKAKYKAREAALKAQSER [T31C]	-0.143 ± 0.08
KRPVSAMFIFSEEKRRQLQEERPELSESELWRLLARMWNDLSEKKKAKYKAREAALKAQSER [T31W]	-0.221 ± 0.056
KRPVSAMFIFSEEKRRQLQEERPELSESELFRLLARMWNDLSEKKKAKYKAREAALKAQSER [T31F]	-0.308 ± 0.12
KRPVSAMFIFSEEKRRQLQEERPELSESELPRLLARMWNDLSEKKKAKYKAREAALKAQSER [T31P]	-0.423 ± 0.079
KRPVSAMFIFSEEKRRQLQEERPELSESELLRLLARMWNDLSEKKKAKYKAREAALKAQSER [T31L]	-0.107 ± 0.049
KRPVSAMFIFSEEKRRQLQEERPELSESELIRLLARMWNDLSEKKKAKYKAREAALKAQSER [T31I]	-0.25 ± 0.092
KRPVSAMFIFSEEKRRQLQEERPELSESELDRLLARMWNDLSEKKKAKYKAREAALKAQSER [T31D]	0.005 ± 0.092
KRPVSAMFIFSEEKRRQLQEERPELSESELKRLLARMWNDLSEKKKAKYKAREAALKAQSER [T31K]	-0.086 ± 0.086
KRPVSAMFIFSEEKRRQLQEERPELSESELGRLLARMWNDLSEKKKAKYKAREAALKAQSER [T31G]	-0.116 ± 0.047
KRPVSAMFIFSEEKRRQLQEERPELSESELVRLLARMWNDLSEKKKAKYKAREAALKAQSER [T31V]	-0.131 ± 0.061
KRPVSAMFIFSEEKRRQLQEERPELSESELARLLARMWNDLSEKKKAKYKAREAALKAQSER [T31A]	-0.043 ± 0.065

Variant	abundance fitness
KRPVSAMFIFSEEKRRQLQEERPELSESELQRLLARMWNDLSEKKKAKYKAREAALKAQSER [T31Q]	-0.045 ± 0.081
KRPVSAMFIFSEEKRRQLQEERPELSESELMRLLARMWNDLSEKKKAKYKAREAALKAQSER [T31M]	-0.133 ± 0.058
KRPVSAMFIFSEEKRRQLQEERPELSESELERLLARMWNDLSEKKKAKYKAREAALKAQSER [T31E]	-0.051 ± 0.08
KRPVSAMFIFSEEKRRQLQEERPELSESELSRLLARMWNDLSEKKKAKYKAREAALKAQSER [T31S]	-0.02 ± 0.036
KRPVSAMFIFSEEKRRQLQEERPELSESELYRLLARMWNDLSEKKKAKYKAREAALKAQSER [T31Y]	-0.428 ± 0.21
KRPVSAMFIFSEEKRRQLQEERPELSESELHRLLARMWNDLSEKKKAKYKAREAALKAQSER [T31H]	-0.074 ± 0.091
KRPVSAMFIFSEEKRRQLQEERPELSESELTILLARMWNDLSEKKKAKYKAREAALKAQSER [R32I]	-0.007 ± 0.13
KRPVSAMFIFSEEKRRQLQEERPELSESELTFLLARMWNDLSEKKKAKYKAREAALKAQSER [R32F]	-0.188 ± 0.11
KRPVSAMFIFSEEKRRQLQEERPELSESELTWLLARMWNDLSEKKKAKYKAREAALKAQSER [R32W]	-0.136 ± 0.054
KRPVSAMFIFSEEKRRQLQEERPELSESELTTLLARMWNDLSEKKKAKYKAREAALKAQSER [R32T]	-0.007 ± 0.092
KRPVSAMFIFSEEKRRQLQEERPELSESELTMLLARMWNDLSEKKKAKYKAREAALKAQSER [R32M]	-0.105 ± 0.083
KRPVSAMFIFSEEKRRQLQEERPELSESELTPLLARMWNDLSEKKKAKYKAREAALKAQSER [R32P]	-0.116 ± 0.073
KRPVSAMFIFSEEKRRQLQEERPELSESELTKLLARMWNDLSEKKKAKYKAREAALKAQSER [R32K]	0.021 ± 0.048
KRPVSAMFIFSEEKRRQLQEERPELSESELTDLLARMWNDLSEKKKAKYKAREAALKAQSER [R32D]	-0.058 ± 0.18
KRPVSAMFIFSEEKRRQLQEERPELSESELTLLLARMWNDLSEKKKAKYKAREAALKAQSER [R32L]	-0.018 ± 0.044
KRPVSAMFIFSEEKRRQLQEERPELSESELTYLLARMWNDLSEKKKAKYKAREAALKAQSER [R32Y]	-0.157 ± 0.13
KRPVSAMFIFSEEKRRQLQEERPELSESELTSLLARMWNDLSEKKKAKYKAREAALKAQSER [R32S]	0.022 ± 0.066
KRPVSAMFIFSEEKRRQLQEERPELSESELTHLLARMWNDLSEKKKAKYKAREAALKAQSER [R32H]	0.023 ± 0.083
KRPVSAMFIFSEEKRRQLQEERPELSESELTALLARMWNDLSEKKKAKYKAREAALKAQSER [R32A]	-0.033 ± 0.048
KRPVSAMFIFSEEKRRQLQEERPELSESELTGLLARMWNDLSEKKKAKYKAREAALKAQSER [R32G]	-0.085 ± 0.045
KRPVSAMFIFSEEKRRQLQEERPELSESELTELLARMWNDLSEKKKAKYKAREAALKAQSER [R32E]	-0.07 ± 0.076
